Data reported in publication PMC6201368.

B1: SCN1Bβ/WT (Navβ1b, sodium channel beta1b subunit) [human] / Kv4.3 (KCND3/WT) [human] (parent)
chain 1: GGCVEVDSETEAVYGMTFKILCISCKRRSETNAETFTEWTFRQKGTEEFVKILRYENEVLQLEEDERFEGRVVWNGSRGTKDLQDLSIFITNVTYNHSGDYECHVYRLLFFENYEHNTSVVKKIHIEVVDKGESGAACPFTVTHRRARWRDRWQAVDRTGWLCAWPANRPQQRAEGEGSSPSCPLQLWPLFLSSPRRGQSMPVPHRRSGYRTQLCHLCCMTSGRCLLSLSQRVVLGLPGIIIRCVSRGVV
chain 2: MAAGVAAWLPFARAAAIGWMPVANCPMPLAPADKNKRQDELIVLNVSGRRFQTWRTTLERYPDTLLGSTEKEFFFNEDTKEYFFDRDPEVFRCVLNFYRTGKLHYPRYECISAYDDELAFYGILPEIIGDCCYEEYKDRKRENAERLMDDNDSENNQESMPSLSFRQTMWRAFENPHTSTLALVFYYVTGFFIAVSVITNVVETVPCGTVPGSKELPCGERYSVAFFCLDTACVMIFTVEYLLRLFAAPSRYRFIRSVMSIIDVVAIMPYYIGLVMTNNEDVSGAFVTLRVFRVFRIFKFSRHSQGLRILGYTLKSCASELGFLLFSLTMAIIIFATVMFYAEKGSSASKFTSIPASFWYTIVTMTTLGYGDMVPKTIAGKIFGSICSLSGVLVIALPVPVIVSNFSRIYHQNQRADKRRAQKKARLARIRVAKTGSSNAYLHSKRNGLLNEALELTGTPEEEHMGKTTSLIESQHHHLLHCLEKTTGLSYLVDDPLLSVRTSTIKNHEFIDEQMFEQNCMESSMQNYPSTRSPSLSSHPGLTTTCCSRRSKKTTHLPNSNLPATRLRSMQELSTIHIQGSEQPSLTTSRSSLNLKADDGLRPNCKTSQITTAIISIPTPPALTPEGESRPPPASPGPNTNIPSIASNVVKVSAL

Variants of: B1
Test: co-immunoprecipitation (IP anti-KCND3, immunoblot anti-SCN1Bβ), band quantification
Details: with Kv4.3 (KCND3/WT) [human]; HEK293 cells co-transfected with KCND3/WT and SCN1Bβ; parent: 1; read off a plot

ratio to parent | Variant
1.2 | chain 1 R232T
1 | chain 1 S230R
